Data reported in the RNAGym collection of RNA variant scans (doi:10.7554/elife.90254).

B1: LINE1-mini (parent)
chain: GGCAGAGCUCAACACAGCGUGGCAAAGUGGCUGUGGCUAGACUGCC

Variants of: B1
Assay: self-cleavage, relative activity (ratio to wild type); higher = more cleavage; in vitro, sequencing; the parent is a self-cleaving ribozyme

Variant	self-cleavage
A4C C31G	0.06
A4C C31U	0.06
A4C C31A	0.14
A4G A25G	0.36
A4G A25U	0.62
A4G A25C	0.78
A4U C13U	0.14
A4U C13G	0.1
A4U C13A	0.12
A4U G44C	0.12
A4U G44U	0.25
A4U G44A	0.17
A4U C15A	0.08
A4U C15U	0.19
A4U C15G	0.06
A4G G7C	0.15
A4G G7A	0.25
A4G G7U	0.18
A4C C23A	0.25
A4C C23U	0.16
A4C C23G	0.23
A4U G22A	0.16
A4U G22U	0.52
A4U G22C	0.08

Variant	self-cleavage
A4U G40A	0.17
A4U G40C	0.07
A4U G40U	0.14
A4C U34C	0.15
A4C U34A	0
A4C U34G	0.02
A4U A12G	0.05
A4U A12C	0.03
A4U A12U	0.12
A4U C37A	0.16
A4U C37U	0.15
A4U C37G	0.08
A4U	0.29
A4G	0.5
A4C G17C	0.08
A4C G17A	0.08
A4C G17U	0.08
A4U A39C	0.27
A4U A39U	0.11
A4U A39G	0.07
A4G C31A	0.12
A4G C31U	0.14
A4G C31G	0.31
A4G U38C	0.31

Variant	self-cleavage
A4G U38A	0.23
A4G U38G	0.04
A4G U34G	0.08
A4G U34A	0.07
A4G U34C	0.12
A4U A14C	0.12
A4U A14U	0.1
A4U A14G	0.15
A4G G21A	1.05
A4G G21C	0.24
A4G G21U	0.68
A4C U32G	0.1
A4C U32A	0.18
A4C U32C	0.1
A4G C15G	0.14
A4G C15A	0.08
A4G C15U	0.65
A4U A16U	0.15
A4U A16C	0.19
A4U A16G	0.12
A4G A26U	0.39
A4G A26C	0.63
A4G A26G	0.48
A4C G5A	0.12

Variant	self-cleavage
A4C G5C	0.08
A4C G5U	0.21
A4C G40A	0.16
A4C G40U	0.13
A4C G40C	0.12
A4U A41U	0.12
A4U A41C	0.11
A4U A41G	0.05
A4U G36U	0.08
A4U G36C	0.07
A4U G36A	0.12
A4U A25C	0.08
A4U A25G	0.08
A4U A25U	0.84
A4G U43G	1.35
A4G U43A	0.12
A4G U43C	1.34
A4G C13A	0.27
A4G C13G	0.2
A4G C13U	0.23
A4U U9A	0.29
A4U U9C	0.07
A4U U9G	0.07
A4G G17U	0.18

Variant	self-cleavage
A4G G17A	0.06
A4G G17C	0.5
A4U G5C	0.45
A4U G5U	0.12
A4U G5A	0.1
A4G C37A	0.06
A4G C37U	0.13
A4G C37G	0.07
A4U G33U	0.12
A4U G33C	0.09
A4U G33A	0.07
A4C U43A	0.06
A4C U43G	0.17
A4C U43C	0.08
A4G G27U	0.31
A4G G27C	0.24
A4G G27A	0.4
A4C C15U	0.13
A4C C15G	0.04
A4C C15A	0.1
A4U A26U	0.2
A4U A26C	0.14
A4U A26G	0.14
A4C C13A	0.15

Variant	self-cleavage
A4C C13G	0.17
A4C C13U	0.35
A4G C42A	0.09
A4G C42G	0.02
A4G C42U	0.22
A4C G22C	0.08
A4C G22U	0.52
A4C G22A	0.09
A4C G19C	0.07
A4C G19A	0.28
A4C G19U	0.06
A4C G29C	0.24
A4C G29U	0.45
A4C G29A	0.07
A4U G30C	0.21
A4U G30A	0.42
A4U G30U	0.22
A4C C42G	0.05
A4C C42U	0.2
A4C C42A	0.13
A4G A12U	0.11
A4G A12G	0.05
A4G A12C	0.03
A4U U20G	0.09

Variant	self-cleavage
A4U U20C	0.13
A4U U20A	0.12
A4C G30U	0.19
A4C G30C	0.07
A4C G30A	0.24
A4C U28G	0.18
A4C U28C	0.22
A4C U28A	0.07
A4G C46G	0.24
A4G C46A	0.4
A4G C46U	0.39
A4C C46G	0.13
A4C C46A	0.14
A4C C46U	0.18
A4C C45A	0.12
A4C C45G	0.17
A4C C45U	0.2
A4C C37G	0.05
A4C C37U	0.16
A4C C37A	0.28
A4G G19U	0.56
A4G G19A	0.95
A4G G19C	0.23
